This note sets out measurements from patent US20260049105A1 (ARIZONA BOARD OF REGENTS ON BEHALF OF THE UNIVERSITY OF …, published 2026).

Assay [1] concerns the target human melanocortin 4 receptor (human, UniProt P32245 1-332). In words: cell-based or functional assay.
The target of assay [2] is T1, human melanocortin 1 receptor (human, UniProt Q01726 1-317).
T1 construct: whole, on cells; also called hMC1R; hM1CR
Put plainly: competition with 125I-NDP-α-MSH, cells expressing hMC1R.

In assay [3] the target is T1, human melanocortin 1 receptor. In words: cell-based or functional assay.
Assay [4] has as its target T2, human melanocortin 3 receptor (human, UniProt P41968 1-323). Put plainly: cell-based or functional assay.
The target of assay [5] is human melanocortin 5 receptor (human, UniProt P33032 1-325). In words: cell-based or functional assay.
For assay [6], the target named is T2, human melanocortin 3 receptor. In words: competition with 125I-NDP-α-MSH, cells expressing hMC3R.

Where only a bound is given, the exact number is not on record here.

T2 sequence (P41968 whole entry): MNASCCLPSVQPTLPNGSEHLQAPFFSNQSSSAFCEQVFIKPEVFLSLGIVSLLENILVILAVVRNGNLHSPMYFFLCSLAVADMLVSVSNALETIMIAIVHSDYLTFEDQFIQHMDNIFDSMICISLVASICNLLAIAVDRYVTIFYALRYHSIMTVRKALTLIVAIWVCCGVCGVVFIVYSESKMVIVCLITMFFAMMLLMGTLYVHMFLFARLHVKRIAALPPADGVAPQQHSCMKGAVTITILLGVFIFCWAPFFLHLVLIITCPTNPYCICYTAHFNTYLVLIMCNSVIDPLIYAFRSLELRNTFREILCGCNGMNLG
T1 sequence (Q01726 whole entry): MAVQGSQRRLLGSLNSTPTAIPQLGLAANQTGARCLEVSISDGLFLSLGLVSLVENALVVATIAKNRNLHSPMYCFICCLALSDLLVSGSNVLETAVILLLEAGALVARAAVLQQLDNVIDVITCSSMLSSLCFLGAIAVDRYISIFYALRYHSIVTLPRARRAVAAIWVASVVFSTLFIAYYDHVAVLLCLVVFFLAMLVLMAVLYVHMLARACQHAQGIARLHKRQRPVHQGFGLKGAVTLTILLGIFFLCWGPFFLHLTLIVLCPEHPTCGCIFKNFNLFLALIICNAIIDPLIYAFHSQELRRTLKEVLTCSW
human melanocortin 5 receptor, sequence (P33032 whole entry): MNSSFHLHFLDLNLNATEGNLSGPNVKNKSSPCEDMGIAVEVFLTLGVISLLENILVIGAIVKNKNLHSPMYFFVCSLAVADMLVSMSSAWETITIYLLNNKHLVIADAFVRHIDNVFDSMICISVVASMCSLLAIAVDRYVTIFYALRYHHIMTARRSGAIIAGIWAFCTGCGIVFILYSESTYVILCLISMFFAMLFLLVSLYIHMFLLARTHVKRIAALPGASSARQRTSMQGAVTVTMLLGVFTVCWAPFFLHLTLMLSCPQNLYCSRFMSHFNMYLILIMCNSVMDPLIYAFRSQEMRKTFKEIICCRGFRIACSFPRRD
human melanocortin 4 receptor, sequence (P32245 whole entry): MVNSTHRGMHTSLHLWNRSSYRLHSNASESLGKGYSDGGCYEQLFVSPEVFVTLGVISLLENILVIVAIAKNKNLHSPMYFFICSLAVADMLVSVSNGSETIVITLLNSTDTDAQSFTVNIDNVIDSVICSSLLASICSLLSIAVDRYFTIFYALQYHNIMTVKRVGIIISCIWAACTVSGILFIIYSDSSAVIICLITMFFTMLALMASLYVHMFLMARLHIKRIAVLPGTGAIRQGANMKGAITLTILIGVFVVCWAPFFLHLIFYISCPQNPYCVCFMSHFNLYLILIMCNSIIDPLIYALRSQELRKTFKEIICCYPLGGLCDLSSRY

B1: Ac-Arg-cyclo[Asp-Pip-D-Phe(4-F)-βArg-Trp-Lys]-NH2 (peptide)
peptide: RDXFRWK
modifications: not fully specified; N-terminal acetyl (Ac); C-terminal amide (NH2); cyclized through the side chains of Asp2 and Lys7; Pip at 3; D-Phe(4-F) at 4; βArg at 5
notes: Synthetic cyclic peptide; also called compound 5; analogue 5
Turning to B1, the “EC50 (nM), cAMP accumulation” value in assay [1] was greater than 1000 nM; in assay [3] it was 340 nM; in assay [4], greater than 1000 nM; in assay [5], greater than 1000 nM. Also, the values for the IC50 in assay [2] and in assay [6] were 14 nM and 59 nM, respectively. For the same molecule, the Act % was 100% in assay [3], 59% in assay [4] and 62% in assay [5].

One may read the IC50 as the concentration that inhibits the measured activity by half. A higher IC50 goes with lower potency.
